These results are taken from PMC3638396 (Philosophical Transactions of the Royal Society B: …, 2013).

Data set [1] deals with the molecule itself. Briefly: quartz crystal microbalance; sonicated Ure2p fibril seeds attached to the gold sensor by Traut's reagent; 1 μM soluble Ure2p introduced, measured without flow; Tris buffer pH 8.4; elongation of the surface-bound seeds.
The next data set has as its target T1, WT Ssa1p (yeast (S. cerevisiae), UniProt P10591 1-642).
T1 construct: Ssa1p, yeast HSP70 family member, residues 1-642 (NBD, SBD, CTD); also called wild-type Ssa1p; full-length Ssa1p; source: plasmid pPROEX-HTb-Ssa1
The data set is described as follows: co-sedimentation; called 'pull-down assay' / 'filament pull-down assay': 10 μM Ure2p fibril seeds with 20 μM WT or ΔA Ssa1p, Tris buffer pH 8.4, 30°C, 2 h; centrifuged through 40 per cent sucrose at 61 000 rpm, 30 min, 4°C; washed pellets on SDS-PAGE. Conditions: both partners purified.

T1 sequence (P10591 whole entry, the tested form may be a part): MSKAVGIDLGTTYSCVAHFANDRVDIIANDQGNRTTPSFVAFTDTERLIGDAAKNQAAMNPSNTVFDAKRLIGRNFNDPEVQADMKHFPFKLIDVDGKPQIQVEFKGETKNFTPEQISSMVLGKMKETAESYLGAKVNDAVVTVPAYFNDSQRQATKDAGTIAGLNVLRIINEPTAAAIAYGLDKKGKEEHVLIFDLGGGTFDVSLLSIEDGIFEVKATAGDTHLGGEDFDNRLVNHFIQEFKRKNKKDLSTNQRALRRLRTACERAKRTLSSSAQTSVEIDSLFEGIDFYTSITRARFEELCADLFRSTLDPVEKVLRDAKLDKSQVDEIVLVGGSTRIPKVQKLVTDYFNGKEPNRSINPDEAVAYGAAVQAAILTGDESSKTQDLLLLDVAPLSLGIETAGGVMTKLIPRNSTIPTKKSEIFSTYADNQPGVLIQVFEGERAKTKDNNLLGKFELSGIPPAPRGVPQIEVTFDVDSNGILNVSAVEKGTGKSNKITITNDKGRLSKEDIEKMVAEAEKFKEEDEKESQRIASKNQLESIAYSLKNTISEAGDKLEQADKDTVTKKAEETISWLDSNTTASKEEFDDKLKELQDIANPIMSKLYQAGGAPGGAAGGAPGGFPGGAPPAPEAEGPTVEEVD

B1: Ure2p (natural protein, Saccharomyces cerevisiae, UniProt P23202 1-354, looked up)
chain: MMNNNGNQVSNLSNALRQVNIGNRNSNTTTDQSNINFEFSTGVNNNNNNNSSSNNNNVQNNNSGRNGSQNNDNENNIKNTLEQHRQQQQAFSDMSHVEYSRITKFFQEQPLEGYTLFSHRSAPNGFKVAIVLSELGFHYNTIFLDFNLGEHRAPEFVSVNPNARVPALIDHGMDNLSIWESGAILLHLVNKYYKETGNPLLWSDDLADQSQINAWLFFQTSGHAPMIGQALHFRYFHSQKIASAVERYTDEVRRVYGVVEMALAERREALVMELDTENAAAYSAGTTPMSQSRFFDYPVWLVGDKLTIADLAFVPWNNVVDRIGINIKIEFPEVYKWTKHMMRRPAVIKALRGE
notes: Ure2p, the protein determinant of the Saccharomyces cerevisiae prion state [URE3]; a 354-residue protein; One construct used in two states: native soluble protein (DLS, solution phase of QCM) and sonicated fibril seeds (co-sedimentation, QCM sensor; seeds treated with Traut's reagent for the sensor); The state is told in each assay's format; also called native Ure2p; soluble Ure2p; source: …
Consider B1, for which the binding result (in data set [1]; with WT Ssa1p) was “binds” in each case.
